The record followed here is patent US20250250357A1 (NANJING ZAIMING PHARMACEUTICAL, published 2025).

In test [1] the target is T1, human MSLN-R1-his protein (human, UniProt Q13421 296-390).
T1 construct: also called hMSLN-R1-his; human MSLN-R1 protein
T1 chain: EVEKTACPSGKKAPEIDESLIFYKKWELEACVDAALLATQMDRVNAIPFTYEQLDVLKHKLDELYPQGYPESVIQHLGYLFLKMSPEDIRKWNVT
The test can be described thus: ELISA, antibody 1 nM.

The target in test [2] is T1, human MSLN-R1-his protein. Put plainly: ELISA, antibody 10 nM.
Test [3] addresses T1, human MSLN-R1-his protein. Put plainly: ELISA, antibody 0.1 nM.
Test [4] addresses T1, human MSLN-R1-his protein. The test can be described thus: ELISA, antibody 100 nM.
For test [5], the target named is T1, human MSLN-R1-his protein. Put plainly: ELISA, antibody 0.01 nM.
In test [6] the target is T1, human MSLN-R1-his protein. The test can be described thus: ELISA, antibody 0.001 nM.
The target in test [7] is T1, human MSLN-R1-his protein. The test can be described thus: ELISA, antibody 0.0001 nM.
Test [8] concerns the target T1, human MSLN-R1-his protein. Put plainly: ELISA, antibody 0 nM (blank).
Test [9] addresses T2, human MSLN on OVCAR3 tumor cells (human, UniProt Q13421 296-598).
T2 construct: whole, on cells; also called human MSLN protein
The test can be described thus: FACS, OVCAR3 cells.

Test [10] concerns the target T3, human MSLN-R3 on HEK293T-hMSLN-R3 recombinant cells (human, UniProt Q13421 487-606).
T3 construct: the C-terminal limit is uncertain; also called human MSLN-R3 membrane protein
The test can be described thus: FACS, HEK293T-hMSLN-R3 cells.

Test [11] deals with T4, monkey MSLN on HEK293T-monkey MSLN recombinant cells (monkey).
T4 construct: Full-length precursor as transfected; processing on the cell is not described; also called HEK293-monkey MSLN
T4 chain: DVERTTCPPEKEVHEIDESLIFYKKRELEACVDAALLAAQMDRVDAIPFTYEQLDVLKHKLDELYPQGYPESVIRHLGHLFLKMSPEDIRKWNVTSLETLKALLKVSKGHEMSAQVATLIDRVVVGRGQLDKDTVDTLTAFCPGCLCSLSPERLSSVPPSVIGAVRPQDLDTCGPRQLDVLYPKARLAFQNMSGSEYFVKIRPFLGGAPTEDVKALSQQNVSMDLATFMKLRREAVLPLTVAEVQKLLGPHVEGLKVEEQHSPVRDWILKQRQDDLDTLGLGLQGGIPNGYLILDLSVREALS
Put plainly: FACS, HEK293T-monkey MSLN cells.

In test [12] the target is T5, human MSLN-R3 protein (human, UniProt Q13421 487-598).
T5 construct: also called hMSLN-R3
Put plainly: ELISA, MSLN-R3 coated, antibody 1 nM.

For test [13], the target named is T5, human MSLN-R3 protein. The test can be described thus: ELISA, MSLN-R3 coated, antibody 10 nM.
Test [14] deals with T5, human MSLN-R3 protein. The test can be described thus: ELISA, MSLN-R3 coated, antibody 0.1 nM.
Test [15] has as its target T5, human MSLN-R3 protein. Put plainly: ELISA, MSLN-R3 coated, antibody 100 nM.
Test [16] addresses T5, human MSLN-R3 protein. The test can be described thus: ELISA, MSLN-R3 coated, antibody 0.01 nM.
Test [17] concerns the target T5, human MSLN-R3 protein. Put plainly: ELISA, MSLN-R3 coated, antibody 0.001 nM.
In test [18] the target is T5, human MSLN-R3 protein. Put plainly: ELISA, MSLN-R3 coated, antibody 0.0001 nM.
Test [19] concerns the target T6, human MSLN-hFc recombinant protein (human, UniProt Q13421 296-580).
T6 construct: Captured by an anti-human IgG antibody on the chip; also called human MSLN protein; Acro MSN-H5253
The test can be described thus: SPR (Biacore 8K), MSLN-hFc captured, antibody injected.

Test [20] has as its target T7, human MSLN-FL-his protein (human, UniProt Q13421 296-580).
T7 construct: also called hMSLN-FL-his; human MSLN full-length protein
Put plainly: ELISA.

T5 sequence (Q13421 495-606): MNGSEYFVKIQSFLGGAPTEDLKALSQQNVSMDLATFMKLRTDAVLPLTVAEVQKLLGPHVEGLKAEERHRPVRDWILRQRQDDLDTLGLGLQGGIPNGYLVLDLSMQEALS
T3 sequence (Q13421 495-614): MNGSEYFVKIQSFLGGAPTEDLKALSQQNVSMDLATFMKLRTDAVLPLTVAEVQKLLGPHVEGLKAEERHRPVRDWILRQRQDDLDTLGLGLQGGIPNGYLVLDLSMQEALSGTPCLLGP
T6 sequence (Q13421 other isoform, or with tags, fused parts or gaps): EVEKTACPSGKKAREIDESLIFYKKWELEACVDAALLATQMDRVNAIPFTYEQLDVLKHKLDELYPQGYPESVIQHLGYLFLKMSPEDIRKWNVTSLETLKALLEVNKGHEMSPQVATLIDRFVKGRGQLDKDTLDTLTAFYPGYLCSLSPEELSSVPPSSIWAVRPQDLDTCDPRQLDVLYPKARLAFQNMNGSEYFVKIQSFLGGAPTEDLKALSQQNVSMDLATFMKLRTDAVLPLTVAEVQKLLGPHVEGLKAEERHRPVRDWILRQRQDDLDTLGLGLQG
T2 sequence (Q13421 other isoform, or with tags, fused parts or gaps): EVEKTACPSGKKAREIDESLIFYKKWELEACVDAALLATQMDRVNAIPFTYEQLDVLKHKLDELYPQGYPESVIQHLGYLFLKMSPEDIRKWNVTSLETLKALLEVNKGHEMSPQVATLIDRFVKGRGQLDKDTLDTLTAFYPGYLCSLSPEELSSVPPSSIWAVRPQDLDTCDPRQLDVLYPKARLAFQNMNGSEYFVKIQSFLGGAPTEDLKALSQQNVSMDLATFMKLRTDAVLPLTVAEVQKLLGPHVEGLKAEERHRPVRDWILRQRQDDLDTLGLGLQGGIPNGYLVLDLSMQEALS

B1: Tab107 (YP3, hIgG1) (antibody, V domains shown)
VH: QEQLVESGGGLVQPGASLTLTCTASGIDFSRYYMCWVRQAPGKGLEGIACIYIGGSGSTYYASWAKGRFTISKASSTTVTLQMTSLTAADTATYFCARGTNLNYIFRLWGPGTLVTVSS
VL: DVVMTQTPSPVSAAVGGTVTIKCQASQSINNGLAWYQQKPGQPPRLLIYSASNLESGVPSRFKGSGSGTEFTLTISDLECDDAATYYCQCIWDGNSYVNAFGGGTEVVVRT
notes: also called YP3 human IgG1 antibody
B1: the OD450 nm in [1] is 0.05; in test [2], 0.06; in test [3], 0.05; in [4] it was 0.08; in test [5], 0.06; in test [6], 0.05. Also, the OD450 nm in [7] was 0.04; in [8] it was 0.05.

B2: F3.38.10-L1H5 (scFv, not shown: small tags and cut ends)
scFv: DIVMTQTPLSLPVTPGEPASISCRSSQSLIHSDGNTYLQWYLQKPGQSPQLLIYKVSNRFSGVPDRFSGSGSGTDFTLKISRVEAEDVGVYYCSQTTHVPFTFGQGTKLEIKGGGGSGGGGSGGGGSEVQLVQSGAEVKKPGASVKVSCKASGYIFTDYYMNWVRQAHGQRLEWMGVINPKNGVISHNQKFKGRVTITVDKSANTAYMELSSLRSEDTAVYYCANYGSRFYAMDYWGQGTTVTVSS
notes: also called S009-F3.38.10 humanized antibody VL1 + VH5
As for B2, the EC50 in test [9] turned out to be 99.8 nM; in test [10], 12 nM; in [11], 90.1 nM. In addition, the Maximum_MFI in test [10] is 1280 MFI. The OD450 nm in the test with human MSLN-R3 protein [12] turned out to be 0.27 OD; with human MSLN-R3 protein [13], 1.19 OD; with human MSLN-R3 protein [14], 0.08 OD; in the test with human MSLN-R3 protein [15], 2.36 OD; in the test with human MSLN-R3 protein [16] it was 0.07 OD; in the test with human MSLN-R3 protein [17], 0.07 OD. Further, the OD450 nm with human MSLN-R3 protein [18] amounted to 0.07 OD. For the same molecule, the binding result in [19] is “no binding”.

B3: S009-F3.38.10 (antibody, human IgG1, kappa, V domains shown)
VH: EVQLQQSGPVLVKPGASVKMSCEASGYIFTDYYMNWVKKSHGKSLEWIGVINPKNGVISHNQKFKGKATLTVDKSSNTAYMELSSLTSEDSAVYYCANYGSRFYAMDYWGQGTSVTVSS
VL: DVVMTQTPLSLPVSLGDQASISCRSSQSLIHSDGNTYLQWYLQKSGQSPKLLIYKVSNRFSGVPDRFSGSGSGTDFTLKISRVETEDLGVYFCSQTTHVPFTFGSGTKLEIKR
notes: chimeric, human IgG1/kappa
As for B3, the binding result in [20] is listed as “no binding (tested: up to 100 nM)”.
